What is called Kd is a measure of binding affinity in units of concentration. A higher Kd goes with a looser complex.

Assay in all cases: SPR, 37 °C
Assay [1] addresses CD3ζ ITAM3 C peptide ITAM3 (Homo sapiens, UniProt P20963, C-terminal ITAM tyrosine monophosphorylated peptide; tSH2-GFP fusion).
Assay [2] deals with CD3ζ ITAM3 N peptide ITAM3 (Homo sapiens, UniProt P20963, N-terminal ITAM tyrosine monophosphorylated peptide; tSH2-GFP fusion).
Assay [3] addresses CD3ζ ITAM3 NC peptide ITAM3 (Homo sapiens, UniProt P20963, both ITAM tyrosines phosphorylated peptide; tSH2-GFP fusion).

Chain of CD3ζ ITAM3 NC peptide ITAM3 (P20963 128-162): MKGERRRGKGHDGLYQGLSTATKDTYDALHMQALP
Chain of CD3ζ ITAM3 N peptide ITAM3 (P20963 128-162): as above
Chain of CD3ζ ITAM3 C peptide ITAM3 (P20963 128-162): as above

B1: ZAP70 tandem SH2 (protein)
chain: MPDPAAHLPFFYGSISRAEAEEHLKLAGMADGLFLLRQCLRSLGGYVLSLVHDVRFHHFPIERQLNGTYAIAGGKAHCGPAELCEFYSRDPDGLPCNLRKPCNRPSGLEPQPGVFDCLRDAMVRDYVRQTWKLEGEALEQAIISQAPQVEKLIATTAHERMPWYHSSLTREEAERKLYSGAQTDGKFLLRPRKEQGTYALSLIYGKTVYHYLISQDKAGKYCIPEGTKFDTLWQLVEYLKLKADGLIYCLKEACPNSSA
In the case of B1, the dissociation constant (Kd) in assay [1] came out at 7.52 µM; in assay [2] it was 20.7 µM; in assay [3] it was 0.0962 µM.

For the origin of these results see PMC8892339 (2022).
